Laboratory results published in patent publication US20240408249A1 (NATIONAL RESEARCH COUNCIL OF CANADA, published 2024).
Substitutions are numbered along the chain they refer to.

B1: Conjugate A ([177Lu]-Compound C-anti-EGFRvIII conjugate prepared from EGFRvIII antibody hH2-hL3) (antibody, V domains shown)
VH: QVQLQESGPGLVKPSQTLSLTCTVSGYSITSDYAWNWIRQPPGKGLEWIGYIGYNGRTSYNPSLKSRVTISRDTSKNQFSLKLSSVTAADTAVYYCARLGRGFAYWGQGTLVTVSS
VL: DIQMTQSPSSLSASVGDRVTITCHASQGINSNIGWLQQKPGKAFKGLIYHGTNLEDGVPSRFSGSGSGTDYTLTISSLQPEDFATYYCVQYAQFPYTFGQGTKLEIKR
modifications: [177Lu]-Compound C (DOTA chelate with PEG3 linker) conjugated to the antibody; attachment residues not stated; typical chelate to antibody ratios (CARs) of 3-4
notes: Radioimmunoconjugate as tested; also called [177Lu]-DOTA-anti-EGFRvIII; humanized variant of anti-EGFRvIII antibody 4E11
B2: Conjugate B ([177Lu]-Compound C-anti-EGFRvIII conjugate prepared from EGFRvIII antibody hH3-hL1) (antibody, V domains shown)
VH: B1 VH with I49M, V68I
VL: B1 VL with L36Y, F44P, G46L
modifications: [177Lu]-Compound C (DOTA chelate with PEG3 linker) conjugated to the antibody; attachment residues not stated; typical chelate to antibody ratios (CARs) of 3-4
notes: as for B1

How the values were obtained:
[1] = target: T1, EGFRvIII (epidermal growth factor receptor variant III) over-expressed on the U87-EGFRvIII glioblastoma cell … (human, UniProt P00533 298-623); assay: radioligand saturation binding on U87-EGFRvIII cells, 2 h on ice, gamma counting, one-site non-linear fit
T1 construct: The assay used cells over-expressing EGFRvIII (whole receptor on cells); EGFRvIII is its in-frame deletion of exons 2-7; also called de2-7EGFR; ΔEGFR
Description: (§1) 1. Cell lysate buffer was prepared using PBS with 1% Triton X-100 [0448] 2. Cell binding buffer was prepared using PBS with 0.5% BSA
(§2) This study followed the procedures described below: [0450] 1. Cell preparation: [0451] a. Harvest attached cells: recover sufficient, U87-EGFRvIII cells from T225 flasks using trypsin/EDTA and transfer to a 50 ml culture tube. Dispense a 50 μl sample of resuspended cells into an Eppendorf micro-tube and dilute with 50 μl of trypan blue. Fill a hemocytometer (10 μl) chamber and count the number of cells present. [0452] i. Count cells in four quadrants of the counting area. [0453] ii. Calculate cells/mL: count/4 quadrants×dilution factor×10⁴=cells/mL. [0454] b. Resuspend cells in medium to a final concentration of 3×10⁵ cells/ml. [0455] c. Plate 3×10⁵/1 mL U87-EGFRvIII into designated well of the 24-well plates and gently tap to evenly distribute cells (total 6 plates prepared-4 U87-EGFRvIII, 2 blanks) [0456] d. Incubate plates overnight at 37° C. and 5% CO₂. [0457] 2. Binding assay: [0458] Blocking agent was prepared as follows: 4500 μl as concentration of 4 μM; Final concentration of blocker 2 μM. [0459] For Conjugate A [0460] stock=7.58 mg/mL [0461] mg/ml=52.64 μM, add 342 μl [0462] Binding buffer: 4158 μl [0463] For Conjugate B [0464] stock=6.7 mg/mL [0465] mg/ml=46.53 μM, add 387 μl [0466] Binding buffer: 4113 μl [0467] a. Remove medium from two plates [0468] b. […]

[2] = target: T1, EGFRvIII (epidermal growth factor …); assay: saturation binding of the 177Lu-labelled conjugate on U87-EGFRvIII cells, 2 h on ice, gamma counting; specific binding curve
Description: as §1, §2

Binder	Kd [1] [nM]	EC50 (read off the curve) [2] [nM]
B1	6.78	
B2	2.75	~3
